# From US8147838B2, “Peptide” (priority 2005, dated 2012)
# Biological target: MHC class I allele A*0101 (A1) (Homo sapiens, UniProt P04439, A114D/A174V/A182V/D101N/D185E/E176A/E190D/L180R/Q94H/R68K/S129P/T187R/V100A/V91M/W191G)
# Experiment: iTopia peptide binding assay, A*0101
# Details: percent of positive control peptide binding; peptide at 1.11×10^−5M
# Method: (§1) The 9 mers were tested for Peptide Binding, Off Rate and Affinity using iTopia Epitope Discovery System in accordance with the manufacturer's instructions. Briefly, 96 well microtitre plates coated with MHC molecules representing different MHC alleles are used to identify candidate peptides. […] Determinations are performed in duplicate using an ELISA plate reader and included allele specific positive controls.
# (§2) i) Peptide Binding—This assay measures the ability of individual peptides to bind to the MHC molecules under standardized optimal binding conditions. The assay is performed for all the test peptides across the selected MHC alleles. The test peptides identified as “binders” are characterized further in terms of affinity and dissociation experiments.
# (§3) Following a period of binding under optimal conditions, excess antibody is removed and a measurement of total fluorescence taken (D).
# (§4) The binding of the test peptides to the MHC molecules was performed at 1.11×10^−5M of peptide under optimal, standardised test conditions. A control peptide was run in parallel on the same plate and at the same concentration as the test peptides.
# (§5) The level of binding is expressed as a percent of positive control peptide binding for each allele.
row,Sequence,"Peptide binding, MHC Class I Molecule A*0101"
1,INADPRLTN [Peptide 203],0 % of control
2,IRVFLDNNP [Peptide 144],0 % of control
3,IVPPEDERQ [Peptide 92],6 % of control
4,KGIKKWMHN [Peptide 190],3 % of control
5,LCECSEAAR [Peptide 33],3 % of control
6,LDNNPWVCD [Peptide 146],0 % of control
7,LELNSADLD [Peptide 168],0 % of control
8,LGIVLALIG [Peptide 180],0 % of control
9,LHLEDNALK [Peptide 132],4 % of control
10,LKETEVVQG [Peptide 155],0 % of control
11,LNLSGSRLD [Peptide 62],2 % of control
12,LNSADLDCD [Peptide 169],0 % of control
13,LPSLRHLDL [Peptide 117],0 % of control
14,LPSLRQLDL [Peptide 71],0 % of control
15,LTCAYPEKM [Peptide 161],16 % of control
16,MRNRVLLEL [Peptide 165],0 % of control
17,NGTLAELQG [Peptide 138],3 % of control
18,NHIVPPEDE [Peptide 91],6 % of control

row,Sequence,"Peptide binding, MHC Class I Molecule A*0101"
1,NNPWVCDCH [Peptide 147],0 % of control
2,NNSLVSLTY [Peptide 122],8 % of control
3,NRNLTEVPT [Peptide 40],1 % of control
4,PAAGDGRLR [Peptide 5],4 % of control
5,PAGAFARRP [Peptide 54],2 % of control
6,PALCECSEA [Peptide 32],4 % of control
7,PDQCPALCE [Peptide 30],5 % of control
8,PFAFSGSNA [Peptide 80],0 % of control
9,PHIRVFLDN [Peptide 143],0 % of control
10,PPEDERQNR [Peptide 93],0 % of control
11,PRLTNLSSN [Peptide 205],2 % of control
12,PWVCDCHMA [Peptide 148],0 % of control
13,QCPALCECS [Peptide 31],3 % of control
14,QPPLPDQCP [Peptide 28],6 % of control
15,RDHMEGYHY [Peptide 197],11 % of control
16,RDVLAQLPS [Peptide 114],1 % of control
17,RQLDLSHNP [Peptide 73],2 % of control
18,RRLELASNH [Peptide 107],0 % of control

# Biological target: MHC class I allele A*0201 (A2) (Homo sapiens, UniProt P04439, D140Y/D185E/D98H/E176V/E277Q/G131W/G231S/I119V/I121R/I166T/I218V/L300P/L318F/N151K/N90K/P208A/P217A/Q86G/Q94H/R138H/R169H/T345S)
# Experiment: iTopia peptide binding assay, A*0201
# Details: percent of positive control peptide binding; peptide at 1.11×10^−5M
# Method: as §1, §2, §3, §4, §5
row,Sequence,"Peptide binding, MHC Class I Molecule A*0201"
1,INADPRLTN [Peptide 203],3 % of control
2,IRVFLDNNP [Peptide 144],4 % of control
3,IVPPEDERQ [Peptide 92],12 % of control
4,KGIKKWMHN [Peptide 190],14 % of control
5,LCECSEAAR [Peptide 33],8 % of control
6,LDNNPWVCD [Peptide 146],0 % of control
7,LELNSADLD [Peptide 168],3 % of control
8,LGIVLALIG [Peptide 180],10 % of control
9,LHLEDNALK [Peptide 132],4 % of control
10,LKETEVVQG [Peptide 155],3 % of control
11,LNLSGSRLD [Peptide 62],7 % of control
12,LNSADLDCD [Peptide 169],0 % of control
13,LPSLRHLDL [Peptide 117],16 % of control
14,LPSLRQLDL [Peptide 71],27 % of control
15,LTCAYPEKM [Peptide 161],40 % of control
16,MRNRVLLEL [Peptide 165],6 % of control
17,NGTLAELQG [Peptide 138],9 % of control
18,NHIVPPEDE [Peptide 91],11 % of control

row,Sequence,"Peptide binding, MHC Class I Molecule A*0201"
1,NNPWVCDCH [Peptide 147],0 % of control
2,NNSLVSLTY [Peptide 122],12 % of control
3,NRNLTEVPT [Peptide 40],6 % of control
4,PAAGDGRLR [Peptide 5],5 % of control
5,PAGAFARRP [Peptide 54],4 % of control
6,PALCECSEA [Peptide 32],19 % of control
7,PDQCPALCE [Peptide 30],3 % of control
8,PFAFSGSNA [Peptide 80],13 % of control
9,PHIRVFLDN [Peptide 143],2 % of control
10,PPEDERQNR [Peptide 93],2 % of control
11,PRLTNLSSN [Peptide 205],8 % of control
12,PWVCDCHMA [Peptide 148],0 % of control
13,QCPALCECS [Peptide 31],2 % of control
14,QPPLPDQCP [Peptide 28],5 % of control
15,RDHMEGYHY [Peptide 197],6 % of control
16,RDVLAQLPS [Peptide 114],15 % of control
17,RQLDLSHNP [Peptide 73],8 % of control
18,RRLELASNH [Peptide 107],5 % of control

# Biological target: MHC class I allele B*0702 (B7) (Homo sapiens, UniProt P01889)
# Experiment: iTopia peptide binding assay, B*0702
# Details: percent of positive control peptide binding; peptide at 1.11×10^−5M
# Method: as §1, §2, §3, §4, §5
row,Sequence,"Peptide binding, MHC Class I Molecule B*0702"
1,INADPRLTN [Peptide 203],4 % of control
2,IRVFLDNNP [Peptide 144],5 % of control
3,IVPPEDERQ [Peptide 92],3 % of control
4,KGIKKWMHN [Peptide 190],6 % of control
5,LCECSEAAR [Peptide 33],0 % of control
6,LDNNPWVCD [Peptide 146],3 % of control
7,LELNSADLD [Peptide 168],3 % of control
8,LGIVLALIG [Peptide 180],0 % of control
9,LHLEDNALK [Peptide 132],0 % of control
10,LKETEVVQG [Peptide 155],3 % of control
11,LNLSGSRLD [Peptide 62],7 % of control
12,LNSADLDCD [Peptide 169],0 % of control
13,LPSLRHLDL [Peptide 117],96 % of control
14,LPSLRQLDL [Peptide 71],82 % of control
15,LTCAYPEKM [Peptide 161],5 % of control
16,MRNRVLLEL [Peptide 165],13 % of control
17,NGTLAELQG [Peptide 138],0 % of control
18,NHIVPPEDE [Peptide 91],5 % of control

row,Sequence,"Peptide binding, MHC Class I Molecule B*0702"
1,NNPWVCDCH [Peptide 147],4 % of control
2,NNSLVSLTY [Peptide 122],0 % of control
3,NRNLTEVPT [Peptide 40],5 % of control
4,PAAGDGRLR [Peptide 5],5 % of control
5,PAGAFARRP [Peptide 54],7 % of control
6,PALCECSEA [Peptide 32],0 % of control
7,PDQCPALCE [Peptide 30],1 % of control
8,PFAFSGSNA [Peptide 80],7 % of control
9,PHIRVFLDN [Peptide 143],10 % of control
10,PPEDERQNR [Peptide 93],0 % of control
11,PRLTNLSSN [Peptide 205],11 % of control
12,PWVCDCHMA [Peptide 148],0 % of control
13,QCPALCECS [Peptide 31],0 % of control
14,QPPLPDQCP [Peptide 28],3 % of control
15,RDHMEGYHY [Peptide 197],5 % of control
16,RDVLAQLPS [Peptide 114],4 % of control
17,RQLDLSHNP [Peptide 73],4 % of control
18,RRLELASNH [Peptide 107],3 % of control

# Biological target: MHC class I allele A*0301 (A3) (Homo sapiens, UniProt P04439)
# Experiment: iTopia peptide binding assay, A*0301
# Details: percent of positive control peptide binding; peptide at 1.11×10^−5M
# Method: as §1, §2, §3, §4, §5
row,Sequence,"Peptide binding, MHC Class I Molecule A*0301"
1,INADPRLTN [Peptide 203],1 % of control
2,IRVFLDNNP [Peptide 144],3 % of control
3,IVPPEDERQ [Peptide 92],3 % of control
4,KGIKKWMHN [Peptide 190],3 % of control
5,LCECSEAAR [Peptide 33],0 % of control
6,LDNNPWVCD [Peptide 146],2 % of control
7,LELNSADLD [Peptide 168],5 % of control
8,LGIVLALIG [Peptide 180],1 % of control
9,LHLEDNALK [Peptide 132],5 % of control
10,LKETEVVQG [Peptide 155],4 % of control
11,LNLSGSRLD [Peptide 62],2 % of control
12,LNSADLDCD [Peptide 169],3 % of control
13,LPSLRHLDL [Peptide 117],1 % of control
14,LPSLRQLDL [Peptide 71],0 % of control
15,LTCAYPEKM [Peptide 161],8 % of control
16,MRNRVLLEL [Peptide 165],4 % of control
17,NGTLAELQG [Peptide 138],3 % of control
18,NHIVPPEDE [Peptide 91],3 % of control

row,Sequence,"Peptide binding, MHC Class I Molecule A*0301"
1,NNPWVCDCH [Peptide 147],16 % of control
2,NNSLVSLTY [Peptide 122],4 % of control
3,NRNLTEVPT [Peptide 40],0 % of control
4,PAAGDGRLR [Peptide 5],4 % of control
5,PAGAFARRP [Peptide 54],3 % of control
6,PALCECSEA [Peptide 32],0 % of control
7,PDQCPALCE [Peptide 30],0 % of control
8,PFAFSGSNA [Peptide 80],3 % of control
9,PHIRVFLDN [Peptide 143],3 % of control
10,PPEDERQNR [Peptide 93],0 % of control
11,PRLTNLSSN [Peptide 205],2 % of control
12,PWVCDCHMA [Peptide 148],0 % of control
13,QCPALCECS [Peptide 31],0 % of control
14,QPPLPDQCP [Peptide 28],1 % of control
15,RDHMEGYHY [Peptide 197],3 % of control
16,RDVLAQLPS [Peptide 114],3 % of control
17,RQLDLSHNP [Peptide 73],2 % of control
18,RRLELASNH [Peptide 107],3 % of control
